Source: publication PMC12582304, “Asymmetric gating of a homopentameric ion channel GLIC revealed by cryo-EM” (Proceedings of the National Academy of Sciences of the …, 2025)

Target: the molecule itself
Assay: cryo-EM structure; nanodisc-reconstituted GLIC-WT at pH 4.0; earlier dataset (ref. 44) reprocessed with symmetry expansion, focused classification and particle reorientation; C5 or no symmetry imposed

B1: Gloeobacter violaceus proton-gated ion channel (GLIC), wild type (natural protein)
chain: VSPPPPIADEPLTVNTGIYLIECYSLDDKAETFKVNAFLSLSWKDRRLAFDPVRSGVRVKTYEPEAIWIPEIRFVNVENARDADVVDISVSPDGTVQYLERFSARVLSPLDFRRYPFDSQTLHIYLIVRSVDTRNIVLAVDLEKVGKNDDVFLTGWDIESFTAVVKPANFALEDRLESKLDYQLRISRQYFSYIPNIILPMLFILFISWTAFWSTSYEANVTLVVSTLIAHIAFNILVETNLPKTPYMTYTGAIIFMIYLFYFVAVIEVTVQHYLKVESQPARAASITRASRIAFPVVFLLANIILAFLFFG
notes: GLIC, proton-gated pentameric ligand-gated ion channel of Gloeobacter violaceus; Homopentamer in DOPE/POPC/POPS nanodiscs; As I recall, the construct is the mature channel without its signal peptide, about 317 residues; also called GLIC-WT; WT; source: E. coli C41, purified (amylose resin, SEC), nanodisc-reconstituted
With B1 the “stoichiometry N” value was 5.
